Experimental data: patent US20120114667A1 (AstraZeneca / MedImmune, published 2012)

Experiments:
human α5β1 integrin [1] = target: T1, human α5β1 integrin (human, UniProt P08648 42-1049; P05556 21-798); assay: cell-based or functional assay
[2] = target: T2, α4β1 integrin on J6.77 Jurkat cells (UniProt P13612 34-1032; P05556 21-798); assay: cell-based or functional assay
Macaque α5β1 = target: T3, Macaque α5β1 (Macaque); assay: FACS on macaque PBMC, 1 mM Mn2+
T3 construct: whole, on cells; macaque species not specified; also called monkey α5β1; monkey integrin
Method: To determine whether the antibodies cross reacted to monkey integrin, binding to purified Macaque T-cells was assessed. Macaque PBMCs were previously purified from whole blood, and stored frozen. Macaque PBMCs were suspended in adhesion buffer with HBSS 1% BSA and 1 mM Mn2+ (“FACS buffer”), at a concentration of 4.8×10⁵ live cells per ml. 12.5 uL of the primary antibody was added to 37.5 ul of cells, and incubated at 4° C. for 1 hour. Positive and negative controls were included as indicated. 100 uL of FACs buffer is added to dilute out primary antibody, the cells washed and resuspended in the appropriate secondary at 2 ug/mL (50 uL) with 10 ug/mL 7AAD, and stained on ice for 7 minutes. 100 uL of FACs buffer was added and cells were washed twice in FACS buffer, finally the supernatant removed and the cells were resuspended in 100 uL of buffer.
Samples were read on HTS FACS machine and analyzed using Cell Quest Pro software. The data shown in Table 7 confirm that the antibodies cross react with monkey α5β1.

[3] = target: T4, β1 integrin chain on HT29 cells (α5 null line) (human, UniProt P05556 21-798); assay: FACS on HT29 cells (no α5, β1 present)
T4 construct: whole, on cells; β1 is paired with alpha chains other than α5 on these cells; also called β1 chain; beta1
Method: To confirm the antibodies bind to the α5 chain or to the α5β1 heterodimer, binding to Human colon adenocarcinoma grade II cells (HT29 cells) was assessed by FACS. […] HT-29 cells were suspended in HBSS with 1% BSA and 1 mM final MnCL₂ at a concentration of 6×10⁵ cells/ml.12.5 uL of the primary antibody was added to 37.5 ul of cells and the plate incubated on ice for 60 minutes. A range of negative controls were included as described previously (indicated as below). In addition as a positive control antibodies to αvβ6 (Mab2077, Chemicon), α5β1 (Mab1909, Chemicon) and av (L230, Chemicon) were included. 100 uL of HBSS buffer was added to dilute primary antibody, the cells pelleted by centrifuging at 1500 rpm for 3 minutes and resuspended in 50 ul Goat anti-human IgG Fc Cy5 or Goat anti Mouse IgG Fc Cy5 secondary at 2 ug/mL. They were then incubated on ice for a further 7 minutes, and 100 uL of HBSS buffer was added to dilute secondary antibody. Finally cells were pelleted by centrifuging at 1500 rpm for 3 minutes, HBSS Buffer/secondary supernatant removed, washed twice in 100 ul of FACS buffer was added and the cells were resuspended and then read on a FACS Calibur HTS. Samples were analyzed using Cell Quest Pro software. The data is represented in Table 6 and confirm that the antibodies are selective for α5β1.

[4] = target: T2, α4β1 integrin on J6.77 Jurkat cells; assay: cell-based or functional assay; remark: listed apart in the source
human α5β1 integrin [5] = target: T1, human α5β1 integrin; assay: cell-based or functional assay; remark: listed apart in the source

T1 sequence (P08648 42-1049, chain 1 of 2): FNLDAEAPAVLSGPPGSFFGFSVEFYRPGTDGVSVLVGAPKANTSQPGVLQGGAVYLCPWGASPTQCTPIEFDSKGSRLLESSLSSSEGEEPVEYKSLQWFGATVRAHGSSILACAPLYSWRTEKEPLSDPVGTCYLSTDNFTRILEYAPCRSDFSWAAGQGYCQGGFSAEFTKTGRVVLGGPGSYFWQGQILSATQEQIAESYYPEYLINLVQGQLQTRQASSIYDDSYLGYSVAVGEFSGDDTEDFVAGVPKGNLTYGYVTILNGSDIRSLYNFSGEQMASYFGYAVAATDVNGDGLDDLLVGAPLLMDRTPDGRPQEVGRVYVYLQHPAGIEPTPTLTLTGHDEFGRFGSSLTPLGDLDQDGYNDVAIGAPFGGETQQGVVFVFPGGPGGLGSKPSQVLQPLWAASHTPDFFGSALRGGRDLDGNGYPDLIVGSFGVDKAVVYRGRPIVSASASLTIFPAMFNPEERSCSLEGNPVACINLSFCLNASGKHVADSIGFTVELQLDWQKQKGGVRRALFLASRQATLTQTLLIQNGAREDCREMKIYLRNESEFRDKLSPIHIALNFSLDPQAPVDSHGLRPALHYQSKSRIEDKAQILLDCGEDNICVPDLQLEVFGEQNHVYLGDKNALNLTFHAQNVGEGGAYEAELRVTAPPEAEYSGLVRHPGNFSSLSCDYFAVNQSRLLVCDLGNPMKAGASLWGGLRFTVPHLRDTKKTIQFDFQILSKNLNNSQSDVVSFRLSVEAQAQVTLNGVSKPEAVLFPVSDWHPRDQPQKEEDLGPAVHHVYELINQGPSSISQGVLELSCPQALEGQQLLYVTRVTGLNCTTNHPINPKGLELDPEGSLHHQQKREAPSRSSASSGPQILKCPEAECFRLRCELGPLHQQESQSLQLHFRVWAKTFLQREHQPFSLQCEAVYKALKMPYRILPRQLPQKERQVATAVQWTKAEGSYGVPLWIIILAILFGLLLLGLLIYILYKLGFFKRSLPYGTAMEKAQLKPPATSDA
T1 sequence (P05556 21-798, chain 2 of 2): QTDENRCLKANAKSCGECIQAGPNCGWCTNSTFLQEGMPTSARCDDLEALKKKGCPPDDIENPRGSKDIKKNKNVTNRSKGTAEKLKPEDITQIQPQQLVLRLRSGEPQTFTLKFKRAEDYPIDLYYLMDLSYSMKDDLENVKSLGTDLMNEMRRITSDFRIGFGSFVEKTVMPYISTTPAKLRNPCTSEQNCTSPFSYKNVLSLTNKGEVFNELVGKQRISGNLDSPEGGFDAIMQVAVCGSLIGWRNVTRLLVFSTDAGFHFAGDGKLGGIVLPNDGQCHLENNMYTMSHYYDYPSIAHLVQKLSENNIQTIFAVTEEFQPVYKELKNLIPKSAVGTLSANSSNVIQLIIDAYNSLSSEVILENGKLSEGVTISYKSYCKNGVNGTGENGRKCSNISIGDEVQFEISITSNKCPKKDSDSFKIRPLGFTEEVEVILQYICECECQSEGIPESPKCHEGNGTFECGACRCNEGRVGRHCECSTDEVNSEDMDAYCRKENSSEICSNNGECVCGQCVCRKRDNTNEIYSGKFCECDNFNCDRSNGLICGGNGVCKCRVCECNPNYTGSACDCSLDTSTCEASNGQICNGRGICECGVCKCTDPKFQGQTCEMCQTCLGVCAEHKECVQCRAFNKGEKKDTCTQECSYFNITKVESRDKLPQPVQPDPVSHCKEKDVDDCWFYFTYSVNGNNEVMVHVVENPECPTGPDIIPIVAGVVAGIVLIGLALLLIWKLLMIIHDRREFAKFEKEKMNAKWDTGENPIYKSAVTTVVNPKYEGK
T4 sequence (P05556 21-798): as the sequence (P05556 21-798, chain 2 of 2) above
T2 sequence (P13612 34-1032, chain 1 of 2): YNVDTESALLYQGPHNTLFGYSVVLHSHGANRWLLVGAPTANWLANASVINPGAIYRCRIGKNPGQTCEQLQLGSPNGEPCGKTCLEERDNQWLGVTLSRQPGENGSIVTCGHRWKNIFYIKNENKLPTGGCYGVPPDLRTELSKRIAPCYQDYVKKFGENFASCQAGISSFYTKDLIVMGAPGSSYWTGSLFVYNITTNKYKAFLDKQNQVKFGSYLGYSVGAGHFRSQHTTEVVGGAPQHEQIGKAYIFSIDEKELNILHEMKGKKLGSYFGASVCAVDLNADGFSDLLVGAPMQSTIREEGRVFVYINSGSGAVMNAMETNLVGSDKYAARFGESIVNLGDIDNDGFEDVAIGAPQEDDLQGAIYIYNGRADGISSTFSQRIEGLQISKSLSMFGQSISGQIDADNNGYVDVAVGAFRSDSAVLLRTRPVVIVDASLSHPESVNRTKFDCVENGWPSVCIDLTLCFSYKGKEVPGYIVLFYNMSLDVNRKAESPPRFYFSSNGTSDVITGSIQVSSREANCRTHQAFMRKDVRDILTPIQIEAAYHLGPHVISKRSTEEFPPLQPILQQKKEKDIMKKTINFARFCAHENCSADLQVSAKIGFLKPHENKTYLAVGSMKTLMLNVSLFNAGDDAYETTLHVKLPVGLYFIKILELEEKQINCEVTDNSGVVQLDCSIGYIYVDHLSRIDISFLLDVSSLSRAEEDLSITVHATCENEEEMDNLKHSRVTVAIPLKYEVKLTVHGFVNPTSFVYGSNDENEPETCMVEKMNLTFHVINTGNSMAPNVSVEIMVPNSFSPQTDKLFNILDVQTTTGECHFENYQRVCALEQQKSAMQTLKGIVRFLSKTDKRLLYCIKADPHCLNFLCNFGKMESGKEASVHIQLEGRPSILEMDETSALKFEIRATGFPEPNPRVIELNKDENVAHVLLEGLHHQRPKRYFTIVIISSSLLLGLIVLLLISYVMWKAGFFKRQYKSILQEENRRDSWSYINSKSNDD
T2 sequence (P05556 21-798, chain 2 of 2): as the sequence (P05556 21-798, chain 2 of 2) above

Binder | % Inhibition of cell adhesion n = 1 (K562 on full length FN) (human α5β1 integrin [1]) [%] | % Inhibition of cell adhesion n = 2 (K562 on full length FN) (human α5β1 integrin [1]) [%] | % Inhibition of cell adhesion n = 3 (K562 on GST-FNIII(9-10), no pre-incubation) (human α5β1 integrin [1]) [%] | % Inhibition of cell adhesion n = 4 (K562 on GST-FNIII(9-10), supernatant 1 in 10) (human α5β1 integrin [1]) [%] | % Inhibition of cell adhesion n = 5 (K562 on GST-FNIII(9-10), supernatant 1 in 10) (human α5β1 integrin [1]) [%] | % Inhibition of adhesion CS1 n = 1 (J6.77 Jurkat on GST-CS-1) [2] [%] | % Inhibition of adhesion CS1 n = 2 (J6.77 Jurkat on GST-CS-1) [2] [%] | Geo Mean on Macaque T-cells IgG detection (Macaque α5β1) | Binding Geomean [3] | binding result [3] | Average % inhibition at 5 ug/ml (J6 adhesion to GST-CS-1) [4] [%] | IC50 ng/mL (K562 adhesion to GST-FNIII(9-10)) (human α5β1 integrin [5]) [ng/mL]
2E10.1B9 (antibody, IgG2, V domains shown) VH: RVQLQESGPGLVKPTQTLSLTCTVSGGSIISGGYFWTWIRQHPGKGLEWIGYIYYSGSTYYSPSLKSRVTISVDTSKNQFSLKLSSVTAADTAVYYCTRAVPAAKGYYSYYGMDVWGQGTTVTVSS VL: not shown | 97 | 94 | 96 | 86 | 87 | 31 | -5 | 12 | 3.11 | no binding | – | –
2A9.1A1 (antibody, IgG2, V domains shown) VH: RVQLQESGPGLVKPTQTLSLTCTVSGGSIISGGYFWTWIRQHPGKGLEWIGYIYYSGSTYYSPSLKSRVTISVDTSKNQFSLKLSSVTAADTAVYYCTRAVPAAKGYYSYYGMDVWGQGTTVTVSS VL: not shown | 100 | 94 | 96 | 94 | 100 | 2 | 11 | 12 | 4.73 | no binding | -19 | 14.1
2C5.2B12 (antibody, IgG2, V domains shown) VH: RVQLQESGPGLVKPTQTLSLTCTVSGGSIISGGYFWTWIRQHPGKGLEWIGYIYYSGSTYYSPSLKSRVTISVDTSKNQFSLKLSSVTAADTAVYYCTRAVPAAKGYYSYYGMDVWGQGTTVTVSS VL: not shown | 100 | 96 | 101 | 96 | 97 | 14 | -5 | 11 | 3.6 | no binding | 18 | 11.9
3C2.2A8 (antibody, IgG2, V domains shown, also called mAb 3C2.2A8) VH: RVQLQESGPGLVKPTQTLSLTCTVSGGSIISGGYFWTWIRQHPGKGLEWIGYIYYSGSTYYSPSLKSRVTISVDTSKNQFSLKLSSVTAADTAVYYCTRAVPAAKGYYSYYGMDVWGQGTTVTVSS VL: not shown | 99 | 100 | 102 | 94 | 96 | 22 | 18 | 10 | 3.29 | no binding | 1 | 12.4
3G11.1A6 (antibody, IgG2, V domains shown) VH: RVQLQESGPGLVKPTQTLSLTCTVSGSSIISGGYFWTWIRQHPGKGLEWIGYIYYSGSTYYSPSLKSRVTISVDTSKNQFSLKLSSVTAADTAVYYCTRAVPAAKGYYSYYGMDVWGQGTTVTVSS VL: not shown | 99 | 99 | 93 | 92 | 100 | 17 | 9 | 13 | 3.02 | no binding | -2 | 9
7B2.3B10 (antibody, IgG4, V domains shown) VH: QVQLVESGGGVVQPGRSLRLSCAASGFTFSSYGMHWVRQAPGKGLEWVAVIWYDGSYKYYADSVQGRFTISRDNSKNTLYLQMNSLRAEDTAVYYCARDKGGHYFDYWGQGTLVTVSS VL: DIQMTQSPSSLSASVGDRVTITCRASQSISSYLNWYQQKPGKAPKLLIYAASSLQSGVPSRFSGSGSGTDFTLTISSLQPEDFATYYCQQNFSFPPEWTFGQGTKVEIK | 93 | 100 | 94 | 85 | 75 | 45 | 21 | 12 | 3.1 | no binding | -14 | 57
9E2.3A8 (antibody, IgG4, V domains shown) VH: not shown VL: DIVMTQSPDSLAVSLGERATINCKSSQSVLHNSHNENYLTWYQQKPGQPPKLLIYWASSRESGVPDRFSGSGSGTDFTLSISSLQADDVAVYYCQQYFSNPWTFGQGTKVEIK | 98 | 100 | 94 | 94 | 87 | 40 | 10 | 12 | 2.86 | no binding | 2 | 73.4
8A6.1A3 (antibody, IgG4, V domains shown) VH: not shown VL: DIVMTQSPDSLAVSLGERATINCKSSQSVFFSSSNENYLTWYQQKPGQPPKLLIYWASTRESGVPDRFSGSGSGTDFTLTISSLQAEDVAVYYCQQYYNIPWTFGQGTKVEIK | 99 | 95 | 91 | 92 | 90 | 24 | 9 | 11 | 2.99 | no binding | -23 | 52.2
2F5.1A4 (antibody, IgG2, V domains shown) VH: QMQLVQSGAEVKKPGASVKVSCKASGYTFTGYYMHWVRQAPGQGLEWMGWINTNSGGTNCAQKFQVRVTMTRDTSISTAYMELSRLRSDDTAVYYCARGRGYSSGWYDYWGQGTLVTVSS VL: not shown | 96 | 100 | 103 | 91 | 84 | 31 | -8 | 13 | 2.94 | no binding | -12 | 97.8
